Laboratory results from article doi:10.1101/2024.10.14.618219 (bioRxiv, 2024).

Key:
Assay in all cases: single-molecule TIRF co-localization
Kif3A^ΔC89-Kif3B = Kif3A^ΔC89-Kif3B (human, UniProt Q9Y496 1-610; O15066 1-747, SNAPf tag labeled with Alexa 647)
Kif3A-Kif3B^ΔC90 = Kif3A-Kif3B^ΔC90 (human, UniProt Q9Y496 1-699; O15066 1-657, SNAPf tag labeled with Alexa 647)
Kif3A-Kif3B^ΔC114 = Kif3A-Kif3B^ΔC114 (human, UniProt Q9Y496 1-699; O15066 1-633, SNAPf tag labeled with Alexa 647)
Sequence of Kif3A-Kif3B^ΔC114 (Q9Y496 whole entry, stated change not applied, chain 1 of 2): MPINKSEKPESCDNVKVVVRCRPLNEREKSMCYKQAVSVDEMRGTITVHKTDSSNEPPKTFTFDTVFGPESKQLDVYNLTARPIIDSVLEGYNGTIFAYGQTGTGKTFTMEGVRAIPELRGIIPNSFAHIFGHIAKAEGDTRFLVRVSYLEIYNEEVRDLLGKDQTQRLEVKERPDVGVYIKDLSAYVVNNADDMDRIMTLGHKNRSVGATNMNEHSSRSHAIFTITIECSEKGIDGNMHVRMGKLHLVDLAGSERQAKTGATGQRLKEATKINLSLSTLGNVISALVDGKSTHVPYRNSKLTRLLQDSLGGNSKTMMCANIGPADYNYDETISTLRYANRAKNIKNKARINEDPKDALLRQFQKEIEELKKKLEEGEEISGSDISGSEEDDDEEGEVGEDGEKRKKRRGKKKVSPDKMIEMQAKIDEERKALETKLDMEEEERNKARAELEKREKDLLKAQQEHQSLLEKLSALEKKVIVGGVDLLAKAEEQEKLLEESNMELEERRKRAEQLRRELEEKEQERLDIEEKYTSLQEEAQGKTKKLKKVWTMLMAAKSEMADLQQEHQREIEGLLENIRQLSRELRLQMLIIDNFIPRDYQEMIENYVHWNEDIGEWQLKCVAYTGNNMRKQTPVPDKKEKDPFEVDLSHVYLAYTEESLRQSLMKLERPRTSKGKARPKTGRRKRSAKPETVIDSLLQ
Sequence of Kif3A-Kif3B^ΔC114 (O15066 1-633, stated change not applied, chain 2 of 2): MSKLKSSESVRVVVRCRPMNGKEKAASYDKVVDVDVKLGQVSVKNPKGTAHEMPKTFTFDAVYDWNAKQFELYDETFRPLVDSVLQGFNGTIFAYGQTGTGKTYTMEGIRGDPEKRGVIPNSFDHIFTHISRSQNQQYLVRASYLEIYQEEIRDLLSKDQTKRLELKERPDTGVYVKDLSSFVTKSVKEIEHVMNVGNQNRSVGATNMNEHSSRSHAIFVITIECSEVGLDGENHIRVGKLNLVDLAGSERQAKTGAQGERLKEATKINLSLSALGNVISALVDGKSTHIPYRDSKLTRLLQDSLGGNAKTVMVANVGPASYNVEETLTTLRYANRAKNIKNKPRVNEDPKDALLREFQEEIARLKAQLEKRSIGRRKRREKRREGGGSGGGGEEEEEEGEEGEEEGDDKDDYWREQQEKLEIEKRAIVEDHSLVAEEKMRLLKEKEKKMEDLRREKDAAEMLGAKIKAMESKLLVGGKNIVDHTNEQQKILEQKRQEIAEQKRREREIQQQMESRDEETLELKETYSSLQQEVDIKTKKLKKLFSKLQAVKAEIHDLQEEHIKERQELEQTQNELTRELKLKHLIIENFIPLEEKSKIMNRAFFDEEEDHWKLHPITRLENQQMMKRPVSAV

Sequence of Kif3A-Kif3B^ΔC90 (Q9Y496 whole entry, stated change not applied, chain 1 of 2): as the sequence (Q9Y496 whole entry, stated change not applied, chain 1 of 2) above
Sequence of Kif3A-Kif3B^ΔC90 (O15066 1-657, stated change not applied, chain 2 of 2): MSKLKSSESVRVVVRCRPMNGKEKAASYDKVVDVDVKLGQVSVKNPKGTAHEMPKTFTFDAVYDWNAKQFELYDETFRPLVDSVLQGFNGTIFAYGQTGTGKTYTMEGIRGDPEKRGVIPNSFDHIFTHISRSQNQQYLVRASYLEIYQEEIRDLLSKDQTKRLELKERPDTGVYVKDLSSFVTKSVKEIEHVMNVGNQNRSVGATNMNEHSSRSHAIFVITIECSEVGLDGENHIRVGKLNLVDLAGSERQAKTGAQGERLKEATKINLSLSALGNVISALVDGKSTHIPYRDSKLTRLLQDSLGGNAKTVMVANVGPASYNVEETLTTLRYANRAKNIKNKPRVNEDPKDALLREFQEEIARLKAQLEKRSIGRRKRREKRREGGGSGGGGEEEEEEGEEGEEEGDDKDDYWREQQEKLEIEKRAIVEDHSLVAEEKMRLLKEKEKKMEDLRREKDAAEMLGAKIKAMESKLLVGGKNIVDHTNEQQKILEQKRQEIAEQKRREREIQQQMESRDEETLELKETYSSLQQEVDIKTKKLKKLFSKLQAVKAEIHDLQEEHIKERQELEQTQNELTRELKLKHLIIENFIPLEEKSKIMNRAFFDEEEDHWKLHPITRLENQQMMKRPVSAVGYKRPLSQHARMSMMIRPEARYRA
Sequence of Kif3A^ΔC89-Kif3B (Q9Y496 1-610, stated change not applied, chain 1 of 2): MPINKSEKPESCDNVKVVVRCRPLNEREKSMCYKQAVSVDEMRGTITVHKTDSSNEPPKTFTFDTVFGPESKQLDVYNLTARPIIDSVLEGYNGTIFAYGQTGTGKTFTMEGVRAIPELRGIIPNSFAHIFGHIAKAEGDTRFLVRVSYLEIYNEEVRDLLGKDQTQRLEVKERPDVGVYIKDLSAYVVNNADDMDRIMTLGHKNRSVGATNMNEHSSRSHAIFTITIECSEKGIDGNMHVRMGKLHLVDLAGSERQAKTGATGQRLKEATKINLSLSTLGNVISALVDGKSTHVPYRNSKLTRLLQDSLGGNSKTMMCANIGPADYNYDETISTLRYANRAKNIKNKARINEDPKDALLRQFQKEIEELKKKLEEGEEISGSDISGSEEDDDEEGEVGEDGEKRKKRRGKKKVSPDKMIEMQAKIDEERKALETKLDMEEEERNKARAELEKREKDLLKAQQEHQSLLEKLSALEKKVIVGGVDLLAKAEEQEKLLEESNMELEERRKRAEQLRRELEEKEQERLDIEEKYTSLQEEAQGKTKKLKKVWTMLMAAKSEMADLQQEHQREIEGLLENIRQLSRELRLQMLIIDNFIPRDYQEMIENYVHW
Sequence of Kif3A^ΔC89-Kif3B (O15066 whole entry, stated change not applied, chain 2 of 2): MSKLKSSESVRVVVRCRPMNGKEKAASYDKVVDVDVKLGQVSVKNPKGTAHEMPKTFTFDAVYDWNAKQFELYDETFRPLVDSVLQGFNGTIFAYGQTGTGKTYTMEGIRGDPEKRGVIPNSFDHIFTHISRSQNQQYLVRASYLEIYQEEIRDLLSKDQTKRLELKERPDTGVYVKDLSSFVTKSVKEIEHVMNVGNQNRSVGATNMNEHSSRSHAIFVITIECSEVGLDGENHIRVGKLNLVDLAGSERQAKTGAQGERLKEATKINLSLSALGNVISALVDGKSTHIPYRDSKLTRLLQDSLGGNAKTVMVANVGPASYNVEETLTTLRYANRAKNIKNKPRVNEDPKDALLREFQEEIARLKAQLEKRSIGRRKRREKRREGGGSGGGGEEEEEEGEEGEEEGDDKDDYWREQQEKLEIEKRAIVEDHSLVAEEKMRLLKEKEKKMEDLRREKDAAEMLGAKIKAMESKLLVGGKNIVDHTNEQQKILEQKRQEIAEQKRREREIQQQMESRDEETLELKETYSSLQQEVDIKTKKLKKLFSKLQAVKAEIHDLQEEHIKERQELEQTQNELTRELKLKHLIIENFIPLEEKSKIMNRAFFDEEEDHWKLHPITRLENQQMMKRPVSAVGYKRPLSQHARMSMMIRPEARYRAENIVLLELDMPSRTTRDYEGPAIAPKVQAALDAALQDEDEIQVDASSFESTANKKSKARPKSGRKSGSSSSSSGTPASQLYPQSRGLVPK

- percent of Kif3AB molecules with Kap3 co-localized (Kif3A^ΔC89-Kif3B): 26%
- percent of Kif3AB molecules with Kap3 co-localized (Kif3A-Kif3B^ΔC90): 62%
- percent of Kif3AB molecules with Kap3 co-localized (Kif3A-Kif3B^ΔC114): 50%
B1: Kap3 (natural protein, human, UniProt Q92845 1-792, looked up)
chain: MQGEDARYLKRKVKGGNIDVHPSEKALIVHYEVEATILGEMGDPMLGERKECQKIIRLKSLNANTDITSLARKVVEECKLIHPSKLNEVEQLLYYLQNRRDSLSGKEKKEKSSKPKDPPPFEGMEIDEVANINDMDEYIELLYEDIPDKVRGSALILQLARNPDNLEELLLNETALGALARVLREDWKQSVELATNIIYIFFCFSSFSQFHGLITHYKIGALCMNIIDHELKRHELWQEELSKKKKAVDEDPENQTLRKDYEKTFKKYQGLVVKQEQLLRVALYLLLNLAEDTRTELKMRNKNIVHMLVKALDRDNFELLILVVSFLKKLSIFMENKNDMVEMDIVEKLVKMIPCEHEDLLNITLRLLLNLSFDTGLRNKMVQVGLLPKLTALLGNDNYKQIAMCVLYHISMDDRFKSMFAYTDCIPQLMKMLFECSDERIDLELISFCINLAANKRNVQLICEGNGLKMLMKRALKFKDPLLMKMIRNISQHDGPTKNLFIDYVGDLAAQISNDEEEEFVIECLGTLANLTIPDLDWELVLKEYKLVPYLKDKLKPGAAEDDLVLEVVIMIGTVSMDDSCAALLAKSGIIPALIELLNAQQEDDEFVCQIIYVFYQMVFHQATRDVIIKETQAPAYLIDLMHDKNNEIRKVCDNTLDIIAEYDEEWAKKIQSEKFRWHNSQWLEMVESRQMDESEQYLYGDDRIEPYIHEGDILERPDLFYNSDGLIASEGAISPDFFNDYHLQNGDVVGQHSFPGSLGMDGFGQPVGILGRPATAYGFRPDEPYYYGYGS
modifications: SNAPf tag labeled with TMR in the co-localization assay
